Data taken from patent publication US20200024598A1, “ISOLATED POLY[…] REGION, HOST CELL COMPRISING THE SAME, AND METHOD OF […] GENE IN THE HOST CELL” (priority 2018, published 2020).

How the values were obtained:
Type in all cases: cell-based, Pseudomonas saitens KCTC 13107BP
Pcat-cm^R SF1 strain = experiment: MIC test of chloramphenicol on recombinant SF1 strain (Pcat promoter); settings: Pseudomonas, 48 h, LB medium, 30° C., 2 days
Procedure: (§1) A pB-P4381 vector comprising cm^R gene (cat) downstream of the promoter of highly expressed gene Gene_4381, which was selected based on RNA-seq data, was constructed as described in (2). This vector was then introduced into SF1 strain by electroporation. As control groups, a pSF-EX1 vector and a pBBR-122 vector were introduced into separate SF1 strains in the same manner as described above.
(§2) Each of the recombinant SF1 strains was cultured in separate wells of a microplate containing LB medium containing predetermined chloramphenicol, and growth thereof was examined to confirm minimal inhibitory concentrations (MICs). Culturing was performed at 30° C. for 2 days in an LB medium supplemented with 400 μg/ml of chloramphenicol by ½ dilution at each concentration.

Ptac-cm^R SF1 strain = experiment: MIC test of chloramphenicol on recombinant SF1 strain (Ptac promoter); settings: Pseudomonas, 48 h, read-out: MIC of Chloramphenicol
Procedure: as §1, §2

P4381-cm^R SF1 strain = experiment: MIC test of chloramphenicol on recombinant SF1 strain (P4381 promoter)
Procedure: as §1, §2

cat gene = experiment: cat mRNA level by RT-PCR; settings: SF1 strain
Description: Pcat-cm^R, Ptac-cm^R, and P4381-cm^R cells cultured in (3.1) were lysed to obtain cell lysates, which were then centrifuged to obtain supernatants, respectively. Each supernatant was subjected to RT-PCR using a set of primers of SEQ ID NOS: 13 and 14.
In FIG. 4, the vertical axis represents a ratio when a cycle threshold (CT) value of Pcat promoter is regarded as 1, and Pcat, Ptac, and P4381 on the horizontal axis represent SF1 strains introduced with […], respectively.

cat protein = experiment: SDS-PAGE analysis of cat protein expression in cell lysates; settings: SDS-PAGE of soluble proteins, SF1 strain
Description: Pcat-cm^R, Ptac-cm^R, and P4381-cm^R cells cultured in (3.1) were lysed to obtain cell lysates, from which soluble proteins were isolated using a BuGBusTER® Protein Extraction Reagent, respectively. The isolated proteins were subjected to SDS-PAGE to examine cat expression.
In FIG. 5, the arrow indicates the position of cat protein.

In the case of O=C(N[C@H](CO)[C@H](O)c1ccc([N+](=O)[O-])cc1)C(Cl)Cl [Chloramphenicol, chloramphenicol], the MIC (Pcat-cm^R SF1 strain) is reported as greater than 100 µg/mL, the MIC (Ptac-cm^R SF1 strain) is reported as greater than 100 µg/mL and the MIC (P4381-cm^R SF1 strain; Pseudomonas, 48 h, strain P4381-cm^R, LB medium, 30° C., 2 days) is reported as greater than 200 µg/mL.

B1: P4381: promoter polynucleotide comprising SEQ ID NO: 1 isolated from Gene_4381 of Pseudomonas saitens KCTC 13107BP (nucleic acid)
DNA: TAGACCTGACTGCAGAGCGAATTCGGGCCTGATTCAGGGCAAAAATGGCCAGAAACCATTTTTCGCGTAAAAAATATTCATTCGCGAGTGCTTTTTTTCCAAGCCCGTTTAACCCTCAAGCCCCGGAAACCGGGGCTTCGAGCATTTCAGGCAGCAGACCGAAGCTAACATCGCAGCAAACTGTGGTTCAGGGGGGTTCCAAAGCGCACATTTCGACTATGATAGCTCGGTGTGCCCAGTTGGCCTGAGCAGCACAGTACTACTGAAAATATAAGTTTCTTGGAGATACACC
modifications: Synthetic Pseudomonas saitens KCTC 13107BP
B1 was tested, and the “MIC relative to that of existing Pcat and Ptac” value (P4381-cm^R SF1 strain; chloramphenicol MIC, SF1 strain) was “twice or higher”, the “cat mRNA level relative to Pcat” value (cat gene; compared with Pcat promoter) was 158 times and the “cat mRNA level relative to Ptac” value (cat gene; compared with Ptac promoter) was 32 times. For the same molecule, the “cat protein expression level compared with Pcat and Ptac” value (cat protein) was “significantly higher”.
